The data set can be described thus: yeast display, Sf9 membrane polyspecificity reagent, FACS + sequencing; frameworks hold sequencing errors. Put shortly:
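Galactose-induced (36–48 hours) yeast carrying a synthetic nanobody display library were exposed to 10% biotinylated, detergent-solubilized Sf9 membrane reagent at 4 °C for 1 hour. FACS followed streptavidin microbead enrichment, using low and high (top ~1%) gates for expression (anti-HA) and reagent binding (streptavidin). Colony PCR, MiSeq 2 × 250 sequencing and CDR-length filtering followed. Labels for polyreactivity reflect the gate of origin.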
Turning to “QVQLVESGGGLVQAGGSLRLSCAASGSTSYWYAMGWYRQAPGKERELVAAISSDDSTNYADSVKGRFTISRDNAKNTVYLQMNSLKPEDTAVYYFNREHYLIRYDYWGQGTQVTVSS”, the “polyreactivity (PSR sort gate)” value is listed as “low polyreactivity”. On to “QVQLVESGGGLVQAGGSLRLSCAASGRIFSFYTMGWYRQAPGKERELVAAITWRGGSTYYADSVKGRFTISRDNAKNTVYLQMNSLKPEDTAVYYCAAEVYGAVYDYWGQGTQVTVSS”, for which the “polyreactivity (PSR sort gate)” value is given as “low polyreactivity”. For the sequence “QVQLVESGGGLVQAGGSLRLSFAASGITFSSYAMGLYRQAPGKERELVARISTDADTYYADSVKGRFTISRDNAKNTVYLQMNSLKPEDTAVYYCAAEDYWDFDYWGQGTQVTVSS”, the “polyreactivity (PSR sort gate)” value is “low polyreactivity”.

“QVQHVESGGGLDQAGGSLRFSCAASGTIFVYNAMGSYREAPGKERELVAAMDTVGSTNYADSVKGRFTISRDNAKNTVYLQMNSLKPEDTAVYYCAVVTPYWSFFEQVIPSNYWGQGSQVTVSS”: the “polyreactivity (PSR sort gate)” value is given as “low polyreactivity”. “QVQLVESGGGLVQAGGSLRLSCAASGRTFVNYAMGWYRQAPGKERELVAAITSDGSTSYADSVKGRFTISRDNAKNTVYLQMNSLKPEDTAVYFCAKDFFEHSPVSHTYSSSKYDYWGQGTQVTVSS”: the “polyreactivity (PSR sort gate)” value is given as “low polyreactivity”.

Turning to “QVQLVESGGGLVQAGGSLRLSCAASGRTSLGNAMGWYRQAPGKERELVAAISGSGGSTYYADSVKGRFTISRDNAKNTVYLQMNSLKPEDTAVYYCNKKLYGYQHYYWYYYWGQGTQVTVSS”, the “polyreactivity (PSR sort gate)” value is on record as “high polyreactivity”. For the sequence “QVQLVESGGGLVQAGCSLRITCAASGYTFYDYAMGWYRQAPRKERELVAAISSSGGSTYYAHSVKGRFTISRDTAKNTVYLQMISLKPEDTAVYYCDVRARRWRYNYWGQGTQVTVSS”, the “polyreactivity (PSR sort gate)” value was “high polyreactivity”.

For “QVQLVESGGGLVHAGGSLRLSCAASGRIYRGNAMGWYRQAPGKERELVARITGNDGDTYYADSVKGRFTISRDNEKNTVYLQMKSLKPEDTAVYYCATDTSSYRSRYYYWGQGTQVTVSS”, the “polyreactivity (PSR sort gate)” value is “low polyreactivity”. On to “QVQLVESGGGLVQAGGSLRLSCAASGRTFVTNAMGWYRQAPGKERELVAAISKSGGRTYYADSVKGRFTISRDNAKNTVYLQMNRLKPEDTAVYYCAADKRYLSYDYWGQGTQVTVSS”, for which the “polyreactivity (PSR sort gate)” value is recorded as “high polyreactivity”.

With “QVQLVESGGGLVQAGGSLRLSCAASGSIFVNKGMGWYRQAPGKERELVAAIRLSTGSTYYADSVKGRFTISRDNAKNTVYLKINSLKREDTAVDDCATRYYIWGNWGQGTQVTGSS”, the “polyreactivity (PSR sort gate)” value is given as “high polyreactivity”.

With “QVQLEETGGGLVQAGGSLRLSCAASGITFGDYAMGWYRQAPGKERELVAAISFTGASTYYADSVKWRFTISRDNAKNTVYLLMNSLKPDDTPVYYCAADPYVPYQDFLSGFDFWGQGTQVTVSW”, the “polyreactivity (PSR sort gate)” value was “low polyreactivity”. As to “QVQLVESGGGLVQAGGSLRLSCAASGRIFGRYAMGWYRQAPGKERELVAAITSGGSTKYADSVKGRFTISRDNAKNNVDLQMNSLKPEDTAVYYCAVVPYGPVYRSYYYWGQGTQVTVSS”, the “polyreactivity (PSR sort gate)” value is listed as “high polyreactivity”.

Consider “QVQLVESGGGLVQAGGSLRLSCAASGRTFRVYAMGWYRQAPGKERELVATLTGRGGSTDYADSVKGRFTISRDNAKNTVYLQMNILKPEDTAVYYCAAVGVSRRADPAWAGDYWGQGTQVTVSS”, for which the “polyreactivity (PSR sort gate)” value was “high polyreactivity”. Consider “QVQLVESGGGLVQAGGSLRLSCAASGSTFAQYAMGWYRQPPRKERELVAAISRRGASTYYADSVKGLFTISRDIAKNTVYLQMNSLKPEDTAVYYCNAVRGEKMGYWGQGTQVTVSS”, for which the “polyreactivity (PSR sort gate)” value is “high polyreactivity”. Take “QVQLVESGGGLVQAGGSLRLSCAASGRIFRPYAMGWYRQAPGKERELVAAISVSGVITYYADSVKGRFTISRDNAKNTVYLQMNSLKPEDTAVYYCARRSSTRYFYGWYDYWGQGTQVTVSS”: the “polyreactivity (PSR sort gate)” value is recorded as “low polyreactivity”. For “QVQLVESGGGLVQAGGSLRLSCAASGSTFDAYAMGWYRQAPGKDRELVAGISSGGSYEYADSVKGRFTISRDNAKNTVYLQMNSLIPEDTAVYYCAADSRQSVYYYQPTKFDYWGQGSQVTVSS”, the “polyreactivity (PSR sort gate)” value is listed as “low polyreactivity”. In the case of “QVQLVESGGGLVQAGGSLRLSCAASGSTFQWYAMGWNIQAPGKERELVAGITRTGSTYYADSVKGRFTISRDNAKNTVYLQMNSLKPEDTAVYYCAAKWHTASGKYYYWGQVTQVTVSS”, the “polyreactivity (PSR sort gate)” value is reported as “high polyreactivity”. The value for “QVQLEESGGGLVQAGGSLRLSCAASGSILVAYAMGWYRQAPGKERELVAAISSVGNTYYADSVKGRFTISRDNAKNTVYLQMNSLKPEDTAVYYCNAVYRVWYAEWSTVGSPHDYWGQGTQVTVSS” was “low polyreactivity”. For “QVQLVESGGGLVQAGGSLRLSCAASGRTFWAYAMGWYRQAPGKERELVAAITASGTRTYYADSVKGRFTISRDNAKNTVYLQMNSLKPEDTAVYYCAAERIWWAHAYPTYVANDYWGQGTQVTVSS”, the “polyreactivity (PSR sort gate)” value is on record as “high polyreactivity”. As for “QVQLVESGGGLVQAGGSLRLSCAASGIIFRVNAMGWYRQAPGKERELVAAISSGGRTYYADSVKGRFTISRDNAKNTVYLQMNSLKPEDTAVYYCAAKPPSTYDYWGQGTQVTVSS”, the “polyreactivity (PSR sort gate)” value is “high polyreactivity”.

With “QVQLVESGGGLVQAGGSLRLSCAASGSIIVRYAMGWYRQAPGKERELVAAITSRGGSTYYAVSVKGRFTISRDNAKNTVYLQMNSLKPEDTAVYYCAAYGDQRSTPAIDKYGGQGTQVTVSS”, the “polyreactivity (PSR sort gate)” value is given as “low polyreactivity”. For the sequence “QVQLVESGGGLVQAGGSLLLSWAASGRSFKYNAMGWDRQAPGKERELVAAISGSGGRTYYADSVKGRFTISRDNAKNTVYLQMNSLIPEDTAVYYCNARYVLYKPDYHRGGRMGYWGQGTQVTVSS”, the “polyreactivity (PSR sort gate)” value is reported as “high polyreactivity”. As to “QVQLVESGGGLVQAGGSLRLSCAASGFTIRRYAMGWYRQAPGKERELVAAITRSAGSTYYADSVKGRFTISRDNAKNTVYLQMNSLKPEDTAVYYCAARWTRWGADSGYYWGQGTQVTVSS”, the “polyreactivity (PSR sort gate)” value was “high polyreactivity”.

“QVQLVESGGGLVQAGGILRLSCAASGRIFRFYTMGWYRQAPGKERELVAAITSSGRTYYADSVKGRVTISRDNAKNTVYLQMNSLKPEDTAVYYCNKYFRPRTILASPGEYWGQGTQVTVSS”: the “polyreactivity (PSR sort gate)” value is “high polyreactivity”. As for “QVQLVESGGGLVQAGGSLRLTCAASGSIFAAKAMGWYRQAPGKERELVAAIRTRTGSTYYADSVKGRFTISRDNAKNTVYLEMNSLKPEDTAVYYCAADGGVPFWIHSTYYYWGQGTQVTVSS”, the “polyreactivity (PSR sort gate)” value is “low polyreactivity”. Take “QVQLVESGGGLVQAGGSLRLSCAASGFIFGHNAMGWYRQAPGKERELVASISKSGGDTYYADSVKGRFTISRDNAKNTVYLQMNSLKPEDTAVYYCAAQGAVFEILDYWGQGTQVTVSS”: the “polyreactivity (PSR sort gate)” value is reported as “low polyreactivity”. For “QVQLVESGGGLFQAGGSLRLSCAPSGRTFDYNAMGWYRQAPGKERELVAAISGSGTRTFYADSVKGRFTISRDNAKNTVYLQMNSLKPEDTAVYYCAASHGWSKSIFYYWGQGTQVTVSS”, the “polyreactivity (PSR sort gate)” value is “high polyreactivity”.

As to “QVQLVESGGGLVQAGGSLRLSCAASGFIIRGNVMGWSRQAPGKERELVAAISGRGGSTYYADSVKGRFTISRDNAKNTVYLQRNILKPEDTGVYYCNAAGLYNSRLDYWGQGTQVTVSS”, the “polyreactivity (PSR sort gate)” value is listed as “high polyreactivity”. The value for “QVQLVESGGGIVQAGGSLRLSCAASGSIYRYNTMGWYRQEPRKERELVATITRRGGSTYYADSVQGRFTISRDNAKNTVYLQMNSLKPEDTAVYYCNADYFGGPYNYWGQGTQVTVSS” was “low polyreactivity”; that for “QVQLVESGGGLVQAGGSLRLSCAASGISFWDYAMGWYRQAPGKERELVAAISSGGSTYYADSVKGRFTISRDNAKNTVYLQMNSLKPEDTAVFYCNAEQRYYRKVKGNYWGQGTQVSVSS” was “high polyreactivity”.

For the origin of these results see the nanobody polyreactivity screen of Harvey et al. (2022).
